In assay [1] the target is T1, recombinant human angiopoietin-1 (human, UniProt Q15389 20-498).
T1 construct: also called Ang-1
T1 sequence (looked up): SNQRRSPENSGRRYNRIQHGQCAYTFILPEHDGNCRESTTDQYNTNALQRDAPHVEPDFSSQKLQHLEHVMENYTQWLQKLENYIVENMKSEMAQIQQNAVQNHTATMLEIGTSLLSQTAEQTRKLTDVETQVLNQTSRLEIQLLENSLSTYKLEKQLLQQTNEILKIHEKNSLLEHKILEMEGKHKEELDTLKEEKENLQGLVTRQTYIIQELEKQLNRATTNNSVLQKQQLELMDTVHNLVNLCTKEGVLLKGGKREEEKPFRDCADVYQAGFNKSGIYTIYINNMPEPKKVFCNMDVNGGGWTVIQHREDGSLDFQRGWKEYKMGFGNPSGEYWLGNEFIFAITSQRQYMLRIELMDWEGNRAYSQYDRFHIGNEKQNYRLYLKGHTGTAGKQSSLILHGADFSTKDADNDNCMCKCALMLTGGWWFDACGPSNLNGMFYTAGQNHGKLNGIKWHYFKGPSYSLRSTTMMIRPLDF
The assay can be described thus: ELISA, protein coated at 4 µg/ml, antibody at 20, 4, 0.8 and 0.16 µg/ml, europium conjugated anti-human IgG. For orientation: ELISA stands for enzyme-linked immunosorbent assay.

In assay [2] the target is T2, recombinant human angiopoietin-2 (human, UniProt O15123 19-496).
T2 construct: also called Ang-2
T2 sequence (looked up): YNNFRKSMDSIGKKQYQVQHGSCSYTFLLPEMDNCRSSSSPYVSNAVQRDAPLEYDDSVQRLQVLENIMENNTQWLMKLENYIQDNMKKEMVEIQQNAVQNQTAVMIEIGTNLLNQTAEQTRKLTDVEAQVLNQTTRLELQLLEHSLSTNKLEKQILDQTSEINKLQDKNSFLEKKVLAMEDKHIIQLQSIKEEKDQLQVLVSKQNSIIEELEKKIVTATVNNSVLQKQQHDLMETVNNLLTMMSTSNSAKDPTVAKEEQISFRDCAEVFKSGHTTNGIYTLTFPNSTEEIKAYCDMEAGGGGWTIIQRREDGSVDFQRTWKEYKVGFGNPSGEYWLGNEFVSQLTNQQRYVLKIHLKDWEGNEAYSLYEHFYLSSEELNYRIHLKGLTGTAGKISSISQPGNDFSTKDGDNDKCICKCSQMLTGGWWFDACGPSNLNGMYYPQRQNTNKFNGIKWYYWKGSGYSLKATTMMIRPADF
The assay is described as above.

Assay [3] deals with T3, recombinant human angiopoietin-4 (human, UniProt Q9Y264 25-503).
T3 construct: also called Ang-4; Ang4
T3 sequence (looked up): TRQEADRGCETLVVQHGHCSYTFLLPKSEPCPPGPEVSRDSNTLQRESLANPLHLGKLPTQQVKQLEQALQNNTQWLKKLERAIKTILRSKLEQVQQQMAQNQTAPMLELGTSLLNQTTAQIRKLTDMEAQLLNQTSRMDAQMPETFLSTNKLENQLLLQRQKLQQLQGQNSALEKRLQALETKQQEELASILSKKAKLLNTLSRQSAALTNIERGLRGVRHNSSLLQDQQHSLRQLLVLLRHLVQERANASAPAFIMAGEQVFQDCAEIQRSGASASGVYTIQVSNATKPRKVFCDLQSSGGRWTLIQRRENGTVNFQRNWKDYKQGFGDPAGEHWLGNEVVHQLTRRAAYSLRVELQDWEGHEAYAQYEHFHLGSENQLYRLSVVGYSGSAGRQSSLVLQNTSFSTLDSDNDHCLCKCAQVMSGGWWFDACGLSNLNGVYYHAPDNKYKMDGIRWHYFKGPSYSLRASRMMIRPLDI
The assay is described as above.

For assay [4], the target named is T1, recombinant human angiopoietin-1. Description: ELISA, angiopoietin coated at 4 µg/mL, antibody 20 µg/mL-0.16 µg/mL, anti-human IgG-Europium.
Assay [5] has as its target T2, recombinant human angiopoietin-2. Described as above.
The target of assay [6] is T3, recombinant human angiopoietin-4. The description is as above.
The target in the next assay is T4, Ang-like-3 (human, UniProt Q9Y5C1 17-460).
T4 sequence (looked up): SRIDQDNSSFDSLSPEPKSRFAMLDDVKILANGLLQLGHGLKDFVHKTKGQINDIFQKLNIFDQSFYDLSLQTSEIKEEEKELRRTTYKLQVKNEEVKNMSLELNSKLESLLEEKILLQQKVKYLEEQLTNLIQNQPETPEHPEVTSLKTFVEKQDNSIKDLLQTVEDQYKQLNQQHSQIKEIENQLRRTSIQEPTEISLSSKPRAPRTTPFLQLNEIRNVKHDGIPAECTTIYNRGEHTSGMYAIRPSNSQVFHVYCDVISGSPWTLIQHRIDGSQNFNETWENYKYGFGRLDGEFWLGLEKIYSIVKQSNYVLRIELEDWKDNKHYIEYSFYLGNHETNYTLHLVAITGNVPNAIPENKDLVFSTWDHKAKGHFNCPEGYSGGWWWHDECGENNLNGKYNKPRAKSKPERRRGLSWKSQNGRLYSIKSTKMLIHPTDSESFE
Description: ELISA, protein coated on plate, anti-human IgG-Europium.

Assay [7] concerns the target T5, soluble, recombinant MICB with a single BirA biotinylation site (human, UniProt Q29980 23-309).
T5 sequence (looked up): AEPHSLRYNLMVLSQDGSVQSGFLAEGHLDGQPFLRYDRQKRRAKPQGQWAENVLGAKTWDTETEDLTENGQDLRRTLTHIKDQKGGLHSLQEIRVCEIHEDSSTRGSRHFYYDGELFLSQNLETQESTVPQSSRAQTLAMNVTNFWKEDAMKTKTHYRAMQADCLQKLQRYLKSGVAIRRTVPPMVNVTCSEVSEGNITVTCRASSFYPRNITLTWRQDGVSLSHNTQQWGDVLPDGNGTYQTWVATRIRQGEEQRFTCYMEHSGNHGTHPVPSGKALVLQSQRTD
Description: cytometric bead assay, biotinylated protein on streptavidin beads, FITC anti-human IgG.

B1: anti-Ang2 Ab6 (antibody ID-10 of Table 1, anti-angiopoietin-2 antibody) (antibody, V domains shown)
VH: EVQLVESGGGLIQPGGSLRLSCAASGFLISSYFMSWVRQAPGKGPEWVSVIYSDGSTYYVDSVKGRFTISTDNSKNTLYLQMNSLRAEDTARYYCATRHLNYDGDHWGQGTLVTVSS
VL: DVVMTQSPLSLPVTLGQPASISCRSSQSLVHSDGNTYLNWFHQRPGQSPRRLIYKVSKRDSGVPDRFSGSGSGSDFTLKISRVEAEDVGIYYCMQGTHWPTFGQGTKVEIKR
notes: also called anti-Ang6 Ab2
Consider B1, for which the binding result in assay [1], in assay [2] and in assay [3] was “binds” each time.

B2: antibody ID 3 (anti-angiopoietin-2 antibody) (antibody, V domains shown)
VH: EVQLVESGGGLVQPGGSLRLSCAASGFTFSNNWMHWVRQAPGKGLEWISEIRSDGNFTRYADSMKGRFTISRDNAKSTLYLQMNSLRVEDTGLYYCARDYPYSIDYWGQGTLVTVSS
VL: DIVMTQTPLSSPVTLGQPASISCTSSQSLVHSNGNTYLSWLQQRPGQPPRLLIYEISKRVSGVPDRFSGSGAGTDFTLKISRVEAEDVGVYYCMQGKQLRTFGQGTKLEIK
Turning to B2, the binding result in assay [4] is listed as “binds”; in assay [5] it was “binds”; in assay [6], “binds”; in the assay with Ang-like-3, “no binding (tested: 20 µg/mL-0.16 µg/mL)”.

B3: CM33322 Ab11 (anti-MICA antibody ID-8 of Table 1) (antibody, V domains shown)
VH: QVQLQESGPGLVKPSENLSLTCTVSDASMSDYHWSWIRQAAGKGLEWIGRMYSTGSPYYKPSLKGRVTMSIDTSKNQFSLKLASVTAADTAIYYCASGQHIGGWVPPDFWGQGTLVTVSS
VL: DIVMTQTPLSSPVTLGQPASISCRSSEGLVYSDGDTYLSWFHQRPGQPPRLLIYKISNRFSGVPDRFSGSGAGTDFTLKISRVEAEDVGVYYCMQATHFPWTFGQGTKVEVKR
Take B3: the binding result in assay [7] is listed as “binds”.

B4: antibody ID 2 (anti-angiopoietin-2 antibody) (antibody, V domains shown)
VH: EVQLVESGGGLVQPGGSLRLSCAASGFTFSSYAMSWVRQAPGKGLEWVSGIYWSGGSTYYADSVKGRFTISRDISKNTLYLQMNSLRADDTAVYYCARGDYYGSGAHFDYWGQGTLVTVSS
VL: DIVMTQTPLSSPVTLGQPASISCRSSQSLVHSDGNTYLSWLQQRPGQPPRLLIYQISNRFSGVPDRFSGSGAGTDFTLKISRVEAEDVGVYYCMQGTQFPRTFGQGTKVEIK
For the molecule B4, the binding result in assay [4] was “binds”; in assay [5], “binds”; in assay [6], “binds”; with Ang-like-3, “no binding (tested: 20 µg/mL-0.16 µg/mL)”.

B5: antibody ID 5 (anti-angiopoietin-2 antibody) (antibody, V domains shown)
VH: EVQLVESGGGLIQPGGSLRLSCATSGFTFRTSSMSWVRRAPGKGLEWVSAIGAESHDTHYTDSAEGRFTISKDYSKNTVYLQMNGLRVDDTAIYYCAHHYYYGSRQKPKDWGDAFDMWGQGTMVSVSS
VL: DIQMTQSPSSVSASVGDRVTITCRASQDISTWLTWYQQRAGKAPNLLIYGASTLEDGVPSRFSGSGSGTDFTLTIDSLQPDDFATYYCQQSHSFPYTFGQGTQLGIS
Turning to B5, the binding result is listed as “binds” in assay [4], “binds” in assay [5], “binds” in assay [6] and “no binding (tested: 20 µg/mL-0.16 µg/mL)” with Ang-like-3.

B6: CM24002 Ab4 (anti-MICA antibody ID-7 of Table 1) (antibody, V domains shown)
VH: QVQLQESGPGLVKPSGTLSLTCAVSGASITNGAWWSWVRQPPGKGLEWIGEIYLNGNTNSNPSLKSRVIISVDKSKNHFSLTLNSVTAADTAVYYCAKNAAYNLEFWGQGALVTVSS
VL: EIVLTQSPGTLSLSPGERATLSCRASQTVSSPYVAWYQQKRGQAPRLLIYGASTRATGIPDRFSGSGSGTDFTLTISRLEPEDFAVYYCQQYDRSYYYTFGQGTKLEIK
With B6, the binding result in assay [7] is on record as “binds”.

B7: antibody ID 4 (anti-angiopoietin-2 antibody) (antibody, V domains shown)
VH: EVQLVESGGGLVQPGGSVRLSCAASGFILSNFAMSWVRQAPGKGLDWVSGNFGGRENTYYADSVKGRFTISRDSSKSTLYLQMNNLRAEDTAVYYCARGDYHGSGAHFDYWGQGILVTVSS
VL: DIVMTQSPLSSPVILGQPASISCRSSQSLLHSDGNTYLSWLHQRPGQPPRLLIYQISNRFSGVPDRFSGSGTGTDFTLKISRVEAEDAGIYYCMQGTEFPRTFGQGTKVEIK
As for B7, the binding result in assay [4] is “binds”; in assay [5], “binds”; in assay [6] it was “binds”; with Ang-like-3, “no binding (tested: 20 µg/mL-0.16 µg/mL)”.

B8: CM24002 Ab2 (anti-MICA antibody ID-6 of Table 1) (antibody, V domains shown)
VH: QVQLQESGPGLVEPSGTLSLTCTVSGGSISRSNWWSWVRQPPGEGLEWIGEIHHIGRSSYNPSLKSRVTMSVDKSQNQFSLRLTSVTAADTAVYYCAKNGYYAMDVWGQGTTVTVSS
VL: EIVLTQSPGTLSLSPGERATLSCRASQSVSSDFLAWYQQKPGQAPRLLIYATSFRATGISDRFSGSGSGTDFSLTINRLEPEDFAVYYCQHYRSSPPWYTFAQGTKLDMRRTVAAPSV
For B8, the binding result in assay [7] is listed as “binds”.

Values taken from US20170008962A1 (Dana-Farber, published 2017).
